In patent US20110263454A1, “Methods of Identifying Functional Characteristics of Promoters, Transcription Modifying Proteins and Transcription Modulating Agents” (Salk Institute for Biological Studies, priority 2008, published 2011):

Columns and labels:
mPer1 promoter = experiment: NHR-promoter luciferase screen, mPer1 promoter; type: cell-based, mouse; conditions: for Luc. act., normalized to lacZ / Normalized Luc. act., normalized to control: Per1 promoter reporter, co-transfected HR, with or without its ligand; for Normalized Luc. act., normalized to control: relative to control; for luciferase activity normalized to lacZ activity and to a control, mPer1: mPer1 promoter-luciferase, CV-1 cells, NHR +/- ligand, control = 1.00
Method: (§1) The use, feasibility, and reproducibility of the functional NHR-promoter screen in a 48-well format have been tested validated. Briefly, there were co-expressed 50 ng of each NHR/NHR homodimer or NHR/RXR heterodimer with 100 ng promoter/luciferase construct and 50 ng of LacZ (as a control for transfection efficiency) in CV-1 cells using Fugene HD (Roche) as a transfection reagent (alternatively or additionally, a CMV-YFP construct can be used as a transfection control). Each of the nuclear hormone receptors that were used in these experiments was cloned into a pcDNA3.1 vector and comprised a C-terminally linked V5H6 tag. Twenty-four hours after transfection, appropriate ligands were added, where applicable, (see Table 5 for various ligands and concentrations and after 48 hrs, samples were assayed for luciferase and LacZ activity. To measure for luciferase activity 15 ul of sample was added to 30 ul of luciferase buffer (20 mM tricine, 1.07 mM MgCarbonate, 2.67 mM MgSulfate, 0.1 mM Naz-EDTA, 5 mM DTT, 5 mM ATP, 0.15 mg/ml CoA, 0.5 mM Luciferin), mixed briefly, and run in a Perkin Elmer Victor 5 luminometer. Thus, the functional NHR-promoter screen was used to observe the transcriptional activity of 29 promoters from various physiological pathways including inflammation, lipid and sugar metabolism, cholesterol transport, xenobiotic metabolism, and circadian rhythm.
(§2) The promoters that facilitate transcription of the indicated gene products that were tested using the protocols described herein are listed in the first row of the table. The nuclear hormone receptors and, where applicable, ligands that were assayed for their transcriptional effects on the promoters are listed in the first column of the table. The data represent the luciferase activity of each sample normalized to both the lacZ activity of that sample and to a control, e.g., no NHR or ligand, as customary in the art. As described previously, these normalizations allow the transcriptional activity of each reporter cell to be compared to other samples.
(§3) Tables 7-40 show the transcriptional effects of the hormone receptors, and, where applicable, ligands (orphan receptors are screened without ligand), on each individual promoter. […] The control data of each table are shown in their last rows.

hMDR1 promoter = experiment: NHR-promoter luciferase screen, hMDR1 promoter; type: cell-based, human; conditions: for Luc. act., normalized to lacZ / Normalized Luc. act., normalized to control: MDR1 promoter, HR/ligand component; for hMDR1 promoter reporter activity: transcription factor +/- ligand, control = 1.00
Method: as §1, §2, §3

mADRP promoter = experiment: NHR-promoter luciferase screen, mADRP promoter; type: cell-based, mouse; conditions: for Luc. act., normalized to lacZ / Normalized Luc. act., normalized to control: ADRP promoter, HR/ligand component; for mADRP promoter reporter activity: transcription factor +/- ligand, control = 1.00
Method: as §1, §2, §3

mDio2 promoter = experiment: NHR-promoter luciferase screen, mDio2 promoter; type: cell-based, mouse; conditions: for Luc. act., normalized to lacZ / Normalized Luc. act., normalized to control: Dio2, HR component without or with its ligand; for mDio2 promoter reporter activity: transcription factor +/- ligand, control = 1.00
Method: as §1, §2, §3

RevErba promoter = experiment: NHR-promoter luciferase screen, RevErba (RVRa) promoter; type: cell-based; parameters: key to mRevErba promoter reporter activity / Normalized Luc. act., normalized to control: luciferase activity normalized to lacZ and to control (no NHR/ligand); conditions: for Luc. act., normalized to lacZ / Normalized Luc. act., normalized to control / negative reciprocal of normalized Luc. act. (fold repression; Table 33) / normalized Luc. act. on a logarithmic scale (column without head, Table 33): RVRa promoter; for Luc. act., normalized to lacZ / Normalized Luc. act., normalized to control: HR component without or with ligand; for negative reciprocal of normalized Luc. act. (fold repression; Table 33): given only where activity is below control; for normalized Luc. act. on a logarithmic scale (column without head, Table 33): log10 of activity normalized to control; for mRevErba promoter reporter activity: transcription factor +/- ligand, control = 1.00
Method: Briefly, there were co-expressed 50 ng of each NHR/NHR homodimer or NHR/RXR heterodimer with 100 ng promoter/luciferase construct and 50 ng of LacZ (as a control for transfection efficiency) in CV-1 cells using Fugene HD (Roche) as a transfection reagent (alternatively or additionally, a CMV-YFP construct can be used as a transfection control). Each of the nuclear hormone receptors that were used in these experiments was cloned into a pcDNA3.1 vector and comprised a C-terminally linked V5H6 tag.
as §2
The control data of each table are shown in their last rows.

| Molecule | Luc. act., normalized to lacZ (mPer1 promoter) | Normalized Luc. act., normalized to control (mPer1 promoter) | luciferase activity normalized to lacZ activity and to a control, mPer1 (mPer1 promoter) | Luc. act., normalized to lacZ (hMDR1 promoter) | Normalized Luc. act., normalized to control (hMDR1 promoter) | hMDR1 promoter reporter activity (hMDR1 promoter) | Luc. act., normalized to lacZ (mADRP promoter) | Normalized Luc. act., normalized to control (mADRP promoter) | mADRP promoter reporter activity (mADRP promoter) | Luc. act., normalized to lacZ (mDio2 promoter) | Normalized Luc. act., normalized to control (mDio2 promoter) | mDio2 promoter reporter activity (mDio2 promoter) | Luc. act., normalized to lacZ (RevErba promoter) | Normalized Luc. act., normalized to control (RevErba promoter) | negative reciprocal of normalized Luc. act. (fold repression; Table 33) (RevErba promoter) | normalized Luc. act. on a logarithmic scale (column without head, Table 33) (RevErba promoter) | mRevErba promoter reporter activity (RevErba promoter) |
| --- | --- | --- | --- | --- | --- | --- | --- | --- | --- | --- | --- | --- | --- | --- | --- | --- | --- |
| RVRb: Rev-Erb β (NR1D2, alternative name RVR), cDNA driver (protein, UniProt Q14995 1-579, looked up) Nuclear receptor subfamily 1 …: MEVNAGGVIAYISSSSSASSPASCHSEGSENSFQSSSSSVPSSPNSSNSDTNGNPKNGDLANIEGILKNDRIDCSMKTSKSSAPGMTKSHSGVTKFSGMVLLCKVCGDVASGFHYGVHACEGCKGFFRRSIQQNIQYKKCLKNENCSIMRMNRNRCQQCRFKKCLSVGMSRDAVRFGRIPKREKQRMLIEMQSAMKTMMNSQFSGHLQNDTLVEHHEQTALPAQEQLRPKPQLEQENIKSSSPPSSDFAKEEVIGMVTRAHKDTFMYNQEQQENSAESMQPQRGERIPKNMEQYNLNHDHCGNGLSSHFPCSESQQHLNGQFKGRNIMHYPNGHAICIANGHCMNFSNAYTQRVCDRVPIDGFSQNENKNSYLCNTGGRMHLVCPMSKSPYVDPHKSGHEIWEEFSMSFTPAVKEVVEFAKRIPGFRDLSQHDQVNLLKAGTFEVLMVRFASLFDAKERTVTFLSGKKYSVDDLHSMGAGDLLNSMFEFSEKLNALQLSDEEMSLFTAVVLVSADRSGIENVNSVEALQETLIRALRTLIMKNHPNEASIFTKLLLKLPDLRSLNNMHSEELLAFKVHP | 118.3 | 0.8 | 0.82 | 0.3 | 0.9 | 0.94 | 353.2 | 0.7 | 0.71 | 19.7 | 1.3 | 1.26 | 2.06 | 0.1 | −13.5606 | −1.13 | 0.07 |
| RVRa: Rev-Erb α (NR1D1), cDNA driver (protein, UniProt P20393 1-614, looked up) Nuclear receptor subfamily 1 …: MTTLDSNNNTGGVITYIGSSGSSPSRTSPESLYSDNSNGSFQSLTQGCPTYFPPSPTGSLTQDPARSFGSIPPSLSDDGSPSSSSSSSSSSSSFYNGSPPGSLQVAMEDSSRVSPSKSTSNITKLNGMVLLCKVCGDVASGFHYGVHACEGCKGFFRRSIQQNIQYKRCLKNENCSIVRINRNRCQQCRFKKCLSVGMSRDAVRFGRIPKREKQRMLAEMQSAMNLANNQLSSQCPLETSPTQHPTPGPMGPSPPPAPVPSPLVGFSQFPQQLTPPRSPSPEPTVEDVISQVARAHREIFTYAHDKLGSSPGNFNANHASGSPPATTPHRWENQGCPPAPNDNNTLAAQRHNEALNGLRQAPSSYPPTWPPGPAHHSCHQSNSNGHRLCPTHVYAAPEGKAPANSPRQGNSKNVLLACPMNMYPHGRSGRTVQEIWEDFSMSFTPAVREVVEFAKHIPGFRDLSQHDQVTLLKAGTFEVLMVRFASLFNVKDQTVMFLSRTTYSLQELGAMGMGDLLSAMFDFSEKLNSLALTEEELGLFTAVVLVSADRSGMENSASVEQLQETLLRALRALVLKNRPLETSRFTKLLLKLPDLRTLNNMHSEKLLSFRVDAQ | 98.6 | 0.7 | 0.68 | 0.2 | 0.6 | 0.64 | 522.2 | 1.0 | 1.05 | 21.5 | 1.4 | 1.37 | 9.76 | 0.3 | −2.865 | −0.46 | 0.35 |
